pKd: −log10 of the molar value.
Key:
[1] = target: 5'FAM-labeled F14.5 peptide; experiment: fluorescence polarisation; 20 nM 5'FAM-labeled peptide with rising concentrations of Streptavidin/StrepTactin, triplicates; ES2 buffer (100 mM potassium phosphate pH 7.4, 100 μg/ml bovine γ globulin, 0.02% NaN3); at least 2 h at RT or o/n at 4 °C
[2] = target: 5'FAM-labeled Strep-tag II peptide; experiment: as above

pKd [1]: 4.35
pKd [2]: 6.37
Substance: Recombinant StrepTactin, unconjugated

Source: publication PMC5463365, “Assembly and use of high-density recombinant peptide chips for large-scale ligand screening is a practical alternative to synthetic peptide libraries” (BMC Genomics, 2017)
